One substance from PMC7269131 can be followed below.

The target in the test is Factor XIIIA (the A-subunit of coagulation Factor XIII), zymogen (UniProt P00488). Briefly: AUC.

In the case of “Factor XIIIA (the A-subunit of coagulation Factor XIII), zymogen (from UniProt P00488 1-732) (enzyme)”, the percent dissociated to monomers after 6 h in 25 mM CaCl2 was 80%.
